# T1: human LAG-3 expressed on cells (human, UniProt P18627 23-525)
# T1 construct: the transgene of the cell lines is not tied to it by name; also called hLAG-3; 3A9.hLAG-3
# T1 sequence: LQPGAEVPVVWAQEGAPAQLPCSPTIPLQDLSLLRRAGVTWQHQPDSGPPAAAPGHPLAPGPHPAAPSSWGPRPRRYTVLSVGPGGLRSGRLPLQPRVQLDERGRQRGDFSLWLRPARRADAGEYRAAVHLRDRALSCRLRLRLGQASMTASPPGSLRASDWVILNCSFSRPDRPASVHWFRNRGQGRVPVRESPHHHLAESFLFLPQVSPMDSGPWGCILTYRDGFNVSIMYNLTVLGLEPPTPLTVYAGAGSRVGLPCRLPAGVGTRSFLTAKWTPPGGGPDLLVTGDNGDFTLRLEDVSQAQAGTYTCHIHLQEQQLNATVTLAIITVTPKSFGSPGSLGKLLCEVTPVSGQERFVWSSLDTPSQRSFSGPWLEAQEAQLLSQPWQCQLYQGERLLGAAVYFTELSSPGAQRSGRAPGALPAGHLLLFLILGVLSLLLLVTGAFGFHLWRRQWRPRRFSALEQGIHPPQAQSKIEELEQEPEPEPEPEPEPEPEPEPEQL
# T2: human LAG-3-hFc (human, UniProt P18627 23-450)
# T2 construct: also called human LAG3-Fc; not shown: human Fc (hFc)
# T2 sequence: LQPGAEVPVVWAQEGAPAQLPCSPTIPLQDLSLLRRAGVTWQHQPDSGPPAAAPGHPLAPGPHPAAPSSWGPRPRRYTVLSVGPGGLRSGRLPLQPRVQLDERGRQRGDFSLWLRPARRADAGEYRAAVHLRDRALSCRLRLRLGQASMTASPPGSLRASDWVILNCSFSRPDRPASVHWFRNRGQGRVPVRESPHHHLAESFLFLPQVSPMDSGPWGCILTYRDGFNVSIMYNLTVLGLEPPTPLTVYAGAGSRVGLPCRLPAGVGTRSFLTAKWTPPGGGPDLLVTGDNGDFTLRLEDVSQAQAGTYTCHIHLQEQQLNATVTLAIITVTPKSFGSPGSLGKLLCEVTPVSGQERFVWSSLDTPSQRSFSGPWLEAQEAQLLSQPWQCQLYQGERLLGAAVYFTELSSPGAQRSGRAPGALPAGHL
# Tests used:
# [1] = biological target: T1, human LAG-3 expressed on cells; assay: flow cytometry on 3A9 cells over-expressing human LAG-3
# Method: Binding to cell-expressed human LAG-3 was evaluated on human LAG-3 over-expressing 3A9 cells. A Nanobody dilution series was prepared in assay buffer: PBS/10% FBS/0.05% sodium azide. 1×10⁵ cells/well were transferred to a 96-well V-bottom plate and resuspended in 100 μL Nanobody dilution. After 30 minutes incubation at 4° C., the cells were washed with 100 μL/well assay buffer and resuspended in 100 μL/well of 1 μg/ml anti-FLAG (Sigma, F1804). […] Samples were incubated for 30 minutes at 4° C., washed, and resuspended in 100 μL/well of 5 nM TOPRO3 (LifeTechnologies, T3606) solution before analysis on FACS CANTO II (BD).
# human LAG-3-hFc = biological target: T2, human LAG-3-hFc; assay: flow cytometry ligand competition; LAG-3-hFc on Daudi cells
# Method: A Nanobody dilution series was prepared in assay buffer: HBSS/2% FBS. Prior to the experiment, Fc receptors on the Daudi cells were blocked with human Fc block (BD Pharmingen, 564220) and 5 μg/mL goat IgG (Jackson ImmunoResearch, 005-000-003) for 30 minutes at 4° C. […] 1×10⁵ cells/well were seeded in V-bottom 96-well plates and resuspended in 100 μL/well of the Nanobody/ligand dilution. After 30 minutes incubation at 4° C., the cells were washed and resuspended in 100 μL/well PE-labeled Goat anti-human IgG (Southern Biotech, 2043-09). Samples were incubated for 15 minutes at 4° C., washed, and resuspended in 100 μL/well of 5 nM TOPRO3 (LifeTechnologies, T3606) solution before analysis on FACS CANTO II (BD).
# [2] = biological target: T3, human PD-1 expressed on cells (human, UniProt Q15116 25-288); assay: flow cytometry ligand competition on CHO cells over-expressing human PD-1
# T3 construct: the transgene of the cell lines is not tied to it by name; also called hPD-1; CHO.hPD-1
# T3 sequence (Q15116 25-288 limits assumed): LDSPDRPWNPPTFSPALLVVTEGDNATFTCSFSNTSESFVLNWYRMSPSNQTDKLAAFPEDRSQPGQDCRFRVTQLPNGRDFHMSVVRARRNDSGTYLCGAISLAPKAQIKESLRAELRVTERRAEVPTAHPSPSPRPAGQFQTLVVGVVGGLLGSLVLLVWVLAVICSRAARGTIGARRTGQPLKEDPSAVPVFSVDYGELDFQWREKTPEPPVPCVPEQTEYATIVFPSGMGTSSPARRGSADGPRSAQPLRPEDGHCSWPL
# Method: Ligand competition assays were performed on human PD-1 over-expressing CHO cells. A Nanobody dilution series was prepared in assay buffer: PBS/10% FBS/0.05% sodium azide. […] 2×10⁴ cells/well were seeded in V-bottom 96-well plates and resuspended in 200 μL/well of the Nanobody/ligand dilution. After 90 minutes incubation at 4° C., the cells were washed with 100 μL/well assay buffer and resuspended in 100 μL/well PE-labeled Goat anti-human IgG (Southern Biotech, 2043-09). Samples were incubated for 30 minutes at 4° C., washed, and resuspended in 100 μL/well of 5 nM TOPRO3 (LifeTechnologies, T3606) solution before analysis on FACS CANTO II (BD).
binding result [1],binding result (human LAG-3-hFc),binding result [2],Binder
binds,binds,–,"F0237611B09-FLAG3-HIS6 (VHH, Original monovalent anti-human LAG-3 Nanobody; also called F0237611B09-FLAG-His6; F02376611B09) VHH: EVQLVESGGGLVQAGGSLRLSCAASGRTFSDYVMGWFRQARGNEREFVAAISESGGRTHYADAVKGRFTISRDNAKNTLYLQMNSLKPEDTAVYYCATTLLWWTSEYAPIKANDYDYWGQGTLVTVSS"
–,–,binds,"F023700275 (1PD102C12(A14P, A74S, K83R)-FLAG3-HIS6) (VHH, Monovalent anti-human PD-1 Nanobody, parent of F023700706) VHH: EVQLVESGGGLVQPGGSLRLSCAASGSIASIHAMGWFRQAPGKEREFVAVITWSGGITYYADSVKGRFTISRDNSKNTVYLQMNSLRPEDTAIYYCAGDKHQSSWYDYWGQGTLVTVSS"

# Reference: patent US20190330339A1 (published 2019)
